Measured values published in patent US20190077863A1 (AERPIO PHARMACEUTICALS, published 2019).

T1: Human VE-PTP (HPTP-β) containing first eight FN3 repeats with C-terminal His6 tag (Human ½ VE-PTP ECD) (human, UniProt P23467 23-820)
T1 construct: Produced in HEK293 cells and purified by the His tag; it was not cut off; also called Human Beta ½ ECD
T1 sequence: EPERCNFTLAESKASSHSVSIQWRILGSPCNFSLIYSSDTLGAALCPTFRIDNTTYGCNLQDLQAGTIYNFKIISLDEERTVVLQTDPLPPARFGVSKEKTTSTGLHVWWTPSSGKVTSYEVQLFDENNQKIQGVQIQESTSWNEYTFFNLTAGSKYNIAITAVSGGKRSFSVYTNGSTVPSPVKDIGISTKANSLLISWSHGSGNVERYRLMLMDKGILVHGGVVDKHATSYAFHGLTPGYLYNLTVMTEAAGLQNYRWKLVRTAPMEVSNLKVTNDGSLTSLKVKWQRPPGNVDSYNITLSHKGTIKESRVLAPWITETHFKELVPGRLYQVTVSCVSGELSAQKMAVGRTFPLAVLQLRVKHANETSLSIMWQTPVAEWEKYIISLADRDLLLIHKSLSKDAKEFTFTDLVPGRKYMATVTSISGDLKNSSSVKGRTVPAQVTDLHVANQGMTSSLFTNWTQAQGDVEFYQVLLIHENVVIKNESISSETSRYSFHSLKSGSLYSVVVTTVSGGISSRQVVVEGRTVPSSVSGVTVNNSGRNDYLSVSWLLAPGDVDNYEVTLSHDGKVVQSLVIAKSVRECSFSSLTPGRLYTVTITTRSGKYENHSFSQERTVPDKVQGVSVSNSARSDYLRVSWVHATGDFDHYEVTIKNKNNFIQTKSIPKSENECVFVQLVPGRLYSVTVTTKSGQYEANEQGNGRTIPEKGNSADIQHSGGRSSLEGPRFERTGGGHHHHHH

T2: Cynomolgus VE-PTP (Cyno PTP-β) containing first eight FN3 repeats with C-terminal His10 tag (Cyno Beta ½ … (cynomolgus, UniProt P23467 25-817 (human entry)))
T2 construct: Produced in HEK293 cells; it was not cut off; also called Cyno VE-PTP
T2 chain: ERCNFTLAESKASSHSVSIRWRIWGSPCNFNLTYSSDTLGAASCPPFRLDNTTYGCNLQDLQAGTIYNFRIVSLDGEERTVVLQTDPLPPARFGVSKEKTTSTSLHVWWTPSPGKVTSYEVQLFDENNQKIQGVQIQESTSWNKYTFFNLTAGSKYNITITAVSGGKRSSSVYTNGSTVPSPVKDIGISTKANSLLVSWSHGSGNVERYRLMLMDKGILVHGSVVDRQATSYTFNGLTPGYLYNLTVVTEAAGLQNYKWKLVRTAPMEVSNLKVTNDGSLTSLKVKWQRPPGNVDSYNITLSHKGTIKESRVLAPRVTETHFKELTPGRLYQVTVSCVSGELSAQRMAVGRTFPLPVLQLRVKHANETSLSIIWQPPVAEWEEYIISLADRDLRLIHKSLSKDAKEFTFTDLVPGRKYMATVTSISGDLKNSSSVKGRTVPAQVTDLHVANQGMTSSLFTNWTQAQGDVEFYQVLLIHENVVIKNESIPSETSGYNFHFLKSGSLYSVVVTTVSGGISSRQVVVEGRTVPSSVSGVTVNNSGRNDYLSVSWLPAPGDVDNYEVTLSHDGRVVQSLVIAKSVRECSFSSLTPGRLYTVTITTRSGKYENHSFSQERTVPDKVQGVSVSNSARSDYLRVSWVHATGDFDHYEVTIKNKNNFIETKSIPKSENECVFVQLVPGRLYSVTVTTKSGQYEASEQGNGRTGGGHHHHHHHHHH


Columns and labels:
[1] = target: T1, Human VE-PTP (HPTP-β) containing first …; assay: SPR (Biacore 3000), antibody captured on anti-human IgG, antigen as analyte 100 nM (single concentration)
Method: Samples of each variant were further assessed by Biacore analysis to determine the binding affinity. Antibody binding experiments were performed on Biacore 3000™ at 25° C. Assay buffer: 10 mM HEPES buffer (pH 7.4), 150 mM NaCl, 3 mM EDTA, 0.05% P20 (polyoxyethylenesorbitan). […] Conjugation buffer: 10 mM sodium acetate buffer (pH 5). The flow rate used for capturing the ligand was 5 μL/min. The flow rate for the kinetic analysis was 50 μL/min. Flow cell 1 and […] of the CM5 chip were coated with maximum amounts of goat anti-human IgG. Approximately 150 RU of the test antibody was captured on flow cell 2, 3, and 4 as indicated. The antigen was flowed over the chip. Binding of the antigen to the antibodies was monitored in real time. The KD was determined from the observed kₒₙ and koff values.
A scouting analysis was performed using single analyte concentrations as indicated. At these concentrations, binding can be observed even if the ligand binding is weak. Flow cell 1 response was used for reference subtraction.

[2] = target: T2, Cynomolgus VE-PTP (Cyno PTP-β) …; assay: ELISA, coated antigen
Method: (§1) HPTP-β, cyno PTP-β, and HPTP-η proteins were coated onto ELISA plates in coating buffer (pH 9.4). Each protein was prepared as a 1 μg/mL protein stock in 50 mM carbonate-bicarbonate. The coated proteins were aliquoted at a volume of 100 μL/well into sterile, clear, polystyrene, flat bottom 96-well plates. The plates were incubated overnight at 4° C. After overnight incubation, the plates were washed 3× with 200 μL/well of 1×PBS-T (PBS with 0.05% Tween 20). The immunizing protein was human VE-PTP (HPTP-β). The plates were then blocked with 200 μL/well of 5% blotting grade blocker non-fat dry milk in PBS-T and incubated for 1 hr at room temperature.
(§2) Primary antibody samples were prepared for the humanized variants and the negative control, anti-hCD20-hIgG4S228P, using 1 μg/well in 5% blotting grade blocker non-fat dry milk in PBS. Samples were tested in triplicates. The Fab antibody fragments were treated as the IgG antibodies. The plates were then washed 3× with PBS-T and 100 μL of primary antibody preparation was added in each well. The plates were then incubated for 1 hr at room temperature.
(§3) Then, […] Ultra TMB-ELISA was added in each well, and the plate was allowed to develop for 5 min at room temperature. After 5 min, 50 μL of 2 M sulfuric acid was added to each well to stop the reaction. The plates were then analyzed on a plate reader at an absorbance wavelength of 450 nm.

[3] = target: T1, Human VE-PTP (HPTP-β) containing first …; assay: ELISA, antigen coated at 1 µg/mL, antibody 1 µg/well
Method: as §1, §2, §3

Binder	Ka [1]	Kd [1]	koff [1]	kon [1]	binding result [2]	ELISA value (absorbance at 450 nm) [3]
humanized R15E6 variant HC2LC1 (antibody, human IgG4 S228P, kappa, V domains shown, Human IgG4 (S228P) / kappa, expressed in CHO cells; Signal peptides left out by range; also called VH2-VL1) VH: EVQLVESGGGLVQPGGSLRLSCAASGFTFNANAMNWVRQAPGKGLEWVGRIRTKSNNYATYYAGSVKDRFTISRDDSKNSLYLQMNSLKTEDTAVYYCVRDYYGSSAWITYWGQGTLVTVSS VL: DVVMTQSPSFLSASVGDRVTITCKASQHVGTAVAWYQQRPGKAPKLLIYWASTRHTGVPSRFSGSGSGTEFTLTISSLQPEDFATYFCQQYSSYPFTFGGGTKLEIKR	7.24e+07 M⁻¹	13.8 nM	0.000688 s⁻¹	49800 M⁻¹ s⁻¹	no binding (tested: <=0.2; 1 µg/well)	1.81
humanized R15E6 variant HC2LC2 (antibody, human IgG4 S228P, kappa, V domains shown, Human IgG4 (S228P) / kappa, expressed in CHO cells; Signal peptides left out by range; also called VH2-VL2) VH: EVQLVESGGGLVQPGGSLRLSCAASGFTFNANAMNWVRQAPGKGLEWVGRIRTKSNNYATYYAGSVKDRFTISRDDSKNSLYLQMNSLKTEDTAVYYCVRDYYGSSAWITYWGQGTLVTVSS VL: DIVMTQSPDSLAVSLGERATINCKASQHVGTAVAWYQQKPGQPPKLLIYWASTRHTGVPDRFSGSGSGTDFTLTISSLQAEDVAVYYCQQYSSYPFTFGQGTKLEIKR	2.85e+08 M⁻¹	3.51 nM	0.000524 s⁻¹	149000 M⁻¹ s⁻¹	no binding (tested: <=0.2; 1 µg/well)	1.92
humanized R15E6 variant HC1LC2 (antibody, human IgG4 S228P, kappa, V domains shown, Human IgG4 (S228P) / kappa, expressed in CHO cells; Signal peptides left out by range; also called VH1-VL2) VH: EVQLVESGGGLVQPGGSLKLSCAASGFTFNANAMNWVRQASGKGLEWVGRIRTKSNNYATYYAGSVKDRFTISRDDSKNTAYLQMNSLKTEDTAAYYCVRDYYGSSAWITYWGQGTLVTVSS VL: DIVMTQSPDSLAVSLGERATINCKASQHVGTAVAWYQQKPGQPPKLLIYWASTRHTGVPDRFSGSGSGTDFTLTISSLQAEDVAVYYCQQYSSYPFTFGQGTKLEIKR	3.27e+08 M⁻¹	3.06 nM	0.000769 s⁻¹	251000 M⁻¹ s⁻¹	no binding (tested: <=0.2; 1 µg/well)	1.75
humanized R15E6 variant HC3LC4 (antibody, human IgG4 S228P, kappa, V domains shown, Human IgG4 (S228P) / kappa, expressed in CHO cells; Signal peptides left out by range; also called VH3-VL4) VH: EVQLVESGGGLVQPGRSLRLSCTASGFTFNANAMNWVRQAPGKGLEWVGRIRTKSNNYATYYAGSVKDRFTISRDDSKNIAYLQMNSLKTEDTAVYYCVRDYYGSSAWITYWGQGTLVTVSS VL: DIVMTQSPDSLAVSLGERATINCKASQHVGTAVAWYQQKPEQPPKLLIYWASTRHTGVPDRFSGSGSGTDFTLTISSLQAEDVAVYYCQQYSSYPFTFGGGTKVEIKR	1.59e+08 M⁻¹	6.29 nM	0.000887 s⁻¹	139000 M⁻¹ s⁻¹	no binding (tested: <=0.2; 1 µg/well)	2
humanized R15E6 variant HC2LC3 (antibody, human IgG4 S228P, kappa, V domains shown, Human IgG4 (S228P) / kappa, expressed in CHO cells; Signal peptides left out by range; also called VH2-VL3) VH: EVQLVESGGGLVQPGGSLRLSCAASGFTFNANAMNWVRQAPGKGLEWVGRIRTKSNNYATYYAGSVKDRFTISRDDSKNSLYLQMNSLKTEDTAVYYCVRDYYGSSAWITYWGQGTLVTVSS VL: DIQMTQSPFSLSASVGDRVTITCKASQHVGTAVAWYQQKPGKAPKLLIYWASTRHTGVPSRFSGSGSGTDFTLTISSLQPEDFATYFCQQYSSYPFTFGGGTKLEIKR	3.36e+08 M⁻¹	2.98 nM	0.000662 s⁻¹	222000 M⁻¹ s⁻¹	no binding (tested: <=0.2; 1 µg/well)	1.55
humanized R15E6 variant HC2LC4 (antibody, human IgG4 S228P, kappa, V domains shown, Human IgG4 (S228P) / kappa, expressed in CHO cells; Signal peptides left out by range; also called VH2-VL4) VH: EVQLVESGGGLVQPGGSLRLSCAASGFTFNANAMNWVRQAPGKGLEWVGRIRTKSNNYATYYAGSVKDRFTISRDDSKNSLYLQMNSLKTEDTAVYYCVRDYYGSSAWITYWGQGTLVTVSS VL: DIVMTQSPDSLAVSLGERATINCKASQHVGTAVAWYQQKPEQPPKLLIYWASTRHTGVPDRFSGSGSGTDFTLTISSLQAEDVAVYYCQQYSSYPFTFGGGTKVEIKR	7.72e+07 M⁻¹	13 nM	0.000668 s⁻¹	51500 M⁻¹ s⁻¹	no binding (tested: <=0.2; 1 µg/well)	1.65
humanized R15E6 variant HC1LC4 (antibody, human IgG4 S228P, kappa, V domains shown, Human IgG4 (S228P) / kappa, expressed in CHO cells; Signal peptides left out by range; also called VH1-VL4) VH: EVQLVESGGGLVQPGGSLKLSCAASGFTFNANAMNWVRQASGKGLEWVGRIRTKSNNYATYYAGSVKDRFTISRDDSKNTAYLQMNSLKTEDTAAYYCVRDYYGSSAWITYWGQGTLVTVSS VL: DIVMTQSPDSLAVSLGERATINCKASQHVGTAVAWYQQKPEQPPKLLIYWASTRHTGVPDRFSGSGSGTDFTLTISSLQAEDVAVYYCQQYSSYPFTFGGGTKVEIKR	2.26e+08 M⁻¹	4.42 nM	0.000792 s⁻¹	179000 M⁻¹ s⁻¹	no binding (tested: <=0.2; 1 µg/well)	1.74
mouse/human chimeric antibody HC0LC0 (antibody, human IgG4 S228P, kappa, V domains shown, Murine variable domains of R15E6 on human IgG4 (S228P) and kappa constant domains, expressed in CHO cells; also called VH0-VL0) VH: EVQLVETGGGLVQPKGSMKLSCAASGFTFNANAMNWIRQAPGKGLEWVARIRTKSNNYATYYAGSVKDRFTISRDDAQNMLYLQMNDLKTEDTAMYYCVRDYYGSSAWITYWGQGTLVTVSA VL: DIVMTQSHKFMSTSVGDRVSITCKASQHVGTAVAWYQQKPDQSPKQLIYWASTRHTGVPDRFTGSGSGTDFTLTISNVQSEDLADYFCQQYSSYPFTFGSGTKLEIKR	1.61e+08 M⁻¹	6.22 nM	0.000417 s⁻¹	67100 M⁻¹ s⁻¹	no binding (tested: <=0.2; 1 µg/well)	1.8
